Reference: the DeepSol protein solubility set

test: soluble on expression in E. coli; label from the status in PepcDB or PDB records

Sequence	soluble on expression in E. coli
MQDLGEVEEDPTELRIDVRHGFDTGPMNVQIAQLMQLATGRRRAPRQSSGSGIQLKIGGRIEVLSYQRKMHEAMKYLLGRLFGGKTVKVNHLAIGCKTILRIPTSFKLHVENLEILDTNTYNNMETVRLMIEASSLPLNMVKFRPTNFTTNNHPIVRTARMLYIHATSTRRRFRDFIEALARLKNIRVHVESRDLSSGSWYMTVFRCWMRYGKKVGTYYTFGTTEETINSAMKVFGRLYGSRTGFDGQITINLKKTSQVVIRKVQQENEWILGMKVESR	not soluble
MQETMLDLRTVYECNRCLGCKTLHPQVGIINLENPSLEEDAVKFEFYAVLLIEDCPGGCCCCGRKYYDYSNATMVFLTPGEIFRMSKENTLPDKGYLLAFHPDLLFRTSLKNHIKNYTFFHYRKEEALHLSRRETEKVTCCLSNIEDELHHPIDTHSSIILSRHIELLLDYCTRYYERQFITRENKNKALLENMERLFVEYIASGRLQGGKLPTSGYMAGELDLSVAYFDDLLKFETGKTLEEYLQLKRLDIARHMLLQDGHTPAAVARKLGYPNVQCFSVLFKKITGVAPSDYRLSQN	not soluble
MQEVHDYGAYLILDEYGGVRAFLPWSEIASRAVRNIHAVLKPRQKVVVKVIRVYKKRGQVDVSLKRVMDSEKKRKMMFYKRYLKAATLVELIAEKLGKSVDEAYREVLWKLEDAYGDPMKGLEAAVLQGREALEKAGVPEEWIEPLLETAKTHVRVKTVKITFYLTLRSMAGDGVERVRKVLEAAKSQIESFKDSKVVARIYTVGAPKYRVELQGYNYKTLEKALEKMVEAARKTASKLGVEFSFERED	soluble
MQFNAVLVKLLDELEVRLRAAQLWQATPPSSQALVSQEPFAVDTLLPHEWLQWIFLPKMQQAIAQNAVPRGFALEPYFSEVWQGEARYQAVLAVIQQIDKVCQ	not soluble
MQGEDRWADIREMNDRLIACERCPRLVEFRKAVVGRDKRFRGETYWARPVPGYGDINGRLLIVGLAPAASGGNRTGRVFTGDKSSDFLVSCLHEAGITNQPTSERRDDGLIYYDAYITAAVKCVPPDNKPLPEEIENCSVYLRSEIGFMKNLKVILVLGQIALQAVVRLIADPAEPRSRYRFVHGAVYSMNGIRVVCSYHPSPRNVNTGKLKRSDFVDLLKKVKEMALE	not soluble
MQGKIIKSLAGFYYVESEGQVYQTRARGNFRKRGETPYVGDIVDFSAEDNSEGYILAIHPRKNSLVRPPIVNIDQAVVIMSAKEPEFNSNLLDRFLILLEHKAIHPVVYISKMDLLDSPEEIKAIGRQYQAIGYDFVTSLEELLPLLADKITVFMGQTGVGKSTLLNRIAPELALEIGEISDSLGRGRHTTRAVSFYNTHGGKIADTPGFSSLDYDIANAEDLNEAFPELRRLSHECKFRSCTHTHEPKCAVKAALETGELWPVRYEHYLQFLSEIENRRETYKKVIKRK	not soluble
MQGYHHPLATNHQTQYGTVGQALHIARKLLPFIPDNAGILIVPCCRGGSAFTAGSEGTYSERHGASHDACRWGTDTPLYQDLVSRTRAALAKNPQNKFLGVCWMQGEFDLMTSDYASHPQHFNHMVEAFRRDLKQYHSQLNNITDAPWFCGDTTWYWKENFPHSYEAIYGNYQNNVLANIIFVDFQQQGERGLTNAPDEDPDDLSTGYYGSAYRSPENWTTALRSSHFSTAARRGIISDRFVEAILQFWRER	not soluble
MQHHKVAIIGAGAAGIGMAITLKDFGITDVIILEKGTVGHSFKHWPKSTRTITPSFTSNGFGMPDMNAISMDTSPAFTFNEEHISGETYAEYLQVVANHYELNIFENTVVTNISADDAYYTIATTTETYHADYIFVATGDYNFPKKPFKYGIHYSEIEDFDNFNKGQYVVIGGNESGFDAAYQLAKNGSDIALYTSTTGLNDPDADPSVRLSPYTRQRLGNVIKQGARIEMNVHYTVKDIDFNNGQYHISFDSGQSVHTPHEPILATGFDATKNPIVQQLFVTTNQDIKLTTHDESTRYPNIFMIGATVENDNAKLCYIYKFRARFAVLAHLLTQREGLPAKQEVIENYQKNQMYLDDYSCCEVSCTCLEHHHHHH	soluble
MQIALAPMEGLVDEILRDVLTRVGGIDWCVTEFIRITDRLLPATAFHKLAPELRDGSRTRAGTPMRVQLLGSDPACLADNAAFACELGAPVIDLNFGCPAKTVNRSRGGAVLLKEPELMHDIVAAVRRAVPSEIAVTSKMRLGYDSPDGALDCARALADGGSAHVVVHARTKVDGYRPPAHWEWVARVAEAVRVPVFANGEVWTLDDYLRCREVSGVEDIMLGRGLVSRPGLARQIAAWRDGGEIREMPWSELLPLLRDFWLQARRKLAPRYAPGRLKQWLGMLTRTYPEAVELFARIRRESDCETIDR	not soluble
MQIEKIRDQKMKAVRVKKLSKLADEITINISGAKNALLHLIFASLIPDTKTKFTNVPITLLDYKGAKEILENVGAKVIEKDEEVTIDTAAISNETLELCGEMTSKTRCSLMLLGSLLKKKGRVKIGFPGGCSFSEKRPFDIHLNGLEALGAEVKLADDHIEVIYKEEKNAEFKMPFPSVGATMNLLMYAVTGNSEIVLENVALEPEVVTLIDYLNQCGANIDFDADSRKIKILGIMRLNGCEFEIIFDRIQAMTYAAMAYLYKTNVTITNINTQDTYSIKKPLEKLTNAGAKWEYNQANRSIKFFGKDSCIKGVDIIAAPFPHFPTDLQPIYAVMLFMANSSSTIQDTVYPERINYVYQIRKMGFNISIDNTLIKINPLKNLNDIRPAVMSVKDLRAGMACLMAGSLLDEFSTINNAHQIFRGYNNLIENMSHFMRIEILNDNV	not soluble
MQILNKILPQVEFAIPRPSFDSLSRNKLVKKILSVFNLKQRFPQKNFGCPVNINKIRDSVIDKIKDSNSGNQLFCWMSQERTTYVSSMINRSIDEMAIHNGVVLTSDNKRNIFAAIEKKFPDIKLDEKSAQTSISHTALNEIASSGLRAKILKRYSSDMDLFNTQMKDLTNLVSSSVYDKIFNESTKVLQIEISAEVLKAVYRQSNTNLEHHHHHH	not soluble
MQKKEKEGRRKLKYDSNDGLLPEIRRVCGFPHHISEELSARGSGKKKKQVEEEWKWPEAQICGICSSGGNILCCEQCPASFHLACIGYESSDLPDDNFYCNRCRNLPENVRLFPPEKCSPSVNPVLRVENENHRNWEAIEYHCNRLRDEEQAEKMKKDVAYGPKSEFAEIQDCFRDKNLLKALGMANPMDYTIPPEFQADRDCFSGDAMEDKRPTIMGEVCAECNLKDDWTRMLKCDFCDLIWHQKCVTPPLIHVRAYFYWMCPRHPETVIDSVLIGDEISREDRRRLYDKYADVEPSYEIFEEFCIKTEQFRMKSEVFDSEEMYYDPEEASTSFMQTVIKPRQTSRKTTGRSASKKKSNGRFFASSWDFPGLSSRETSPSRKNSRKSPDSVATERKDRVLDKIDKKRSIKLTEEEIIMSIMPVEESSRAEYLTQKMLGTDIEQSTNFFNRHSAMIDRIRAFYGNLPEKELIKLMREDLDPVETIRGGGTQSIISQNEKPYRKKLKADVEVLIQHVGLGTDSTERHFNSIGTEAFYRRCAPPVTARNVLNQKTLREVVLNSQKEAHEGAGVYEYHAEPEQLENLVLLAYEPSFESPEDRDTYFVPSMTIWSKEPICALTRKWAASGASKQAPPSSSSSEAPSVEAEVKEEVVEEEDEENEARMRRESTATSSIVYNNDTGPLEFIEENMPPPAATITEKSDPFDFSSLEMPEIHEKAETVYEAEGYYGESDDLPLDLRRTKSESDLVDRIIWPLVRSALQNFIRREDCHQMHLEHNYSSLYQTHDSDEENQPVVEVEKLITYEEYQENLYSAEFASPQTPPPIPPPPAVYYDNFSDAPRKRGRPVGSRNRKEGDTTIPKQQRKRNPQPVGRGRGRGGGRPRGSRSSRGSMDDGGGSRRHSTASDANESAELLNQPVTKQLRDEIKEIKLKYTKMMMDRGFEQAKDEYFRNRDAALSKWTPEQWKEHNEQCVAARLSSLIPYDQRYFLPTQRVLARLDLEDGDLRLPAVHLPIAIQRCVTKLGTAHDCHVRCDKLTGDAWCSVLADYHCDIVRDYYSDNFYISTLGTEAVFVDGRAVRRPRLTPFEAAEKLRTRGSSTIIPPHIKCRCQKHSDLQISRQESTGELVRCGILKLEHGARIQIGCVAFIFSRI	not soluble
MQKQAELYRGKAKTVYSTENPDLLVLEFRNDTSAGDGARIEQFDRKGMVNNKFNYFIMSKLAEAGIPTQMERLLSDTECLVKKLDMVPVECVVRNRAAGSLVKRLGIEEGIELNPPLFDLFLKNDAMHDPMVNESYCETFGWVSKENLARMKELTYKANDVLKKLFDDAGLILVDFKLEFGLYKGEVVLGDEFSPDGSRLWDKETLEKMDKDRFRQSLGGLIEAYEAVARRLGVQLD	soluble
MQKSKRNAKKKAVSTREKSARSSRGTNKSQRSARSKMAKPRTAETREDAYSCHRTMEEKSTNQQYSALSVRSETTSKVKKLPSKLDASLSARKKGKKESNEEDKKMRDSERQKREKKEVPKEMRQSMMGSVFEEIEGPVSPAPLEKDENKMEWKIDVDPVVLTGDQRMSDVLGKMKDLKKNSGWKKCKVLKANEKTPDNDDEPTEESIYLSARVLQLVKMESLISKEVSKEDQEILRGYCRSNDHKDKVEPIFEAIAVSILEKVASKNEFIRNVSIPGQLRMFAVDENKSKFSTMALLIVRCDLFYYSWNKPALDDEDQLDPTWANMTRRPSVTPPDSQ	not soluble
MQKSYGVALESPTGSGKTIMALKSALQYSSERKLKVLYLVRTNSQEEQVIKELRSLSSTMKIRAIPMQGRVNMCILYRMVDDLHEINAESLAKFCNMKKREVMAGNEAACPYFNFKIRSDETKRFLFDELPTAEEFYDYGERNNVCPYESMKAALPDADIVIAPYAYFLNRSVAEKFLSHWGVSRNQIVIILDEAHNLPDIGRSIGSFRISVESLNRADREAQAYGDPELSQKIHVSDLIEMIRSALQSMVSERCGKGDVRIRFQEFMEYMRIMNKRSEREIRSLLNYLYLFGEYVENEKEKVGKVPFSYCSSVASRIIAFSDQDEEKYAAILSPEDGGYMQAACLDPSGILEVLKESKTIHMSGTLDPFDFYSDITGFEIPFKKIGEIFPPENRYIAYYDGVSSKYDTLDEKELDRMATVIEDIILKVKKNTIVYFPSYSLMDRVENRVSFEHMKEYRGIDQKELYSMLKKFRRDHGTIFAVSGGRLSEGINFPGNELEMIILAGLPFPRPDAINRSLFDYYERKYGKGWEYSVVYPTAIKIRQEIGRLIRSAEDTGACVILDKRAGQFRKFIPDMKKTSDPASDIYNFFISAQAREKYGA	soluble
MQKYTIVDLNEKAEAELAAIAGELGIANAGSMPKQELIYKILDEQAISVAGVRKEKQKTTEDRHTERRKPGRPRKNAEEEAPESEDVAAAPAEPNDEEAQAKRKRGRPRKAAEEIAEETREDVQQLVALAAAEETNATEKESAGRKPAAKTSTASPAKAPAKALPRPAETTPRVAPSPPPTTPVSEPAKDDAKPETPAPPPAIESITTTPAAGAVDEGGARRLVFRHKNSSSVLDQVLPYSSPQPPQRPKPAGAPVGSSPIRQRQAAGVPTPRREPQQPLYNFDGILECM	not soluble
MQLDEDDMIINIFWADDRSISDYNLFGDVICFEQLIRPMHMIDPLLICRGQSSQANSCVW	not soluble
MQLFHKTVNRRGTHSIKWDTYKNEELIHAWIADMDFEVPQPIQTALKKRIEHPIFGYTLPPENIGDIICNWTKKQYNWDIQKEWIVFSAGIVPALSTSIQAFTKENESVLVQPPIYPPFFEMVTTNNRQLCVSPLQKQNDTYAIDFEHLEKQFQQGVKLMLLCSPHNPIGRVWKKEELTKLGSLCTKYNVIVVADEIHSDIIYADHTHTPFASLSEELAARTITCMAPSKTFNIAGLQASIIIIPNEKLRQAFTSIQYRQGFHGLNIFAYTAMQSAYTECNDWLNEIRFYIEDNAKFACEYIKDHIPTLSVMKPEGSFLLWIDCSALNLSQDERTKLLEEKGKIIVEPGEKYGLGGEEHIGINIGCPRSVLEEILNRLRHTFS	soluble
